Source: the domain aggregation screens of Martell et al. (2025)

Assay: soluble fraction after stress (log2 fold change); higher = more stays soluble; pooled small domains, quantitative proteomics
Conditions: stress: 75 degC
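Also: 20 min heating vs room temperature control held 20 min.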

Row | Sequence | soluble fraction (log2)
1 | HMKYYIYQGLGDSGELTKIAEVTDVKTYTATGLEANTKYRFAVSAYNGLRESSKSNIITVTT | 0.0116
2 | HMLADIGGRIADLRREVGLTQGELAEKADISVVHLSNIELGKKTPGLSTLIRIAEALDVATDWILQA | -1.38
3 | HMLAFDKDDSGAVAEIILVLGRYWMDFSHKKYPAAEGVALRHKGLSHIFTVLRPYLSTPASELIGERLRR | -0.0618
4 | HMLAGVDTLADRELEVFQMLGRGKSTKEIAQVLNLGESTVETYRARIKEKLQLRSAAELYLRAGQWVRDHG | -1.09
5 | HMLAIKKGGIFAILGPNGSGKSTFSKVLAGHPAYTVVDGDIFFKGLSILDLEPEERSHLGIFLAFQ | -0.286
6 | HMLAKRYLVYGSGSLNSAYPDTKNIAYGIDSGKGFFLVGILTENEASKLKLKGYYVIEDFPLDFH | -1.45
7 | HMLAPLAEMRGDTLDRLEKAVLELFSSRDFHEVSLQDVARRANVSLQTIYKYFGSKEALVYTMLDTLLGR | -0.416
8 | HMLAQVSDEGPIRAMVEAVMARSTQQLEDYKNGKVKLRQYFFGEVMKAAKGKANPTVINKLLDEMLPETL | -0.314
9 | HMLAQYPGQVFSKEQIYNQVWKEPYYGVEDNVMSLIRRIRKKIEPDPSRPIYILTVWGIGYKFNN | 0.0812
10 | HMLARFSGIALNTWTQADVERTFGPPMLVERVARFDGDIWTYRFMDDYEPRMAHIHIDRAGTVRQLVF | -2.86
11 | HMLAVEKIEFVGNERIAAADLESALSALYDRPMTTISDDEIAKLLSGFSLIETFTSQAEPPHTLRVNIRE | 0.083
12 | HMLDEKFLSELMLALLRNHRRGLRAEVLLHKVRSNMELDGYKSLLVGVGRMEMWELAREIIDFVKAEG | -4.4
13 | HMLDGFEVGMTVMRKPGTETGFTGWPPFADKDEFPVIERIDTSDSTLLLRFNDTSWWINASLVEPSDV | -2.19
14 | HMLDIPEVGQAVQVRGRLGTVFSVAPYDGREGRLHLVTVDYLDDARPPENDEILWEIESGARILG | -0.698
15 | HMLDLNEVEFYAIENQLKENLKIDSKRFYELVPLIKGYQEDDIIQVLRWLIDNNRIIRHKDESLTWHS | -1.68
16 | HMLDLSEEEQKIVSILEKQGNLQINSLVVEADIPVHKINAILFELEMKGVVRVLALSLIHISEP | 0.149
17 | HMLDPVLQREKDESFTDYHIRLFKNKDTYHIDTKTIATLLNKDQGTNYDESKWRKDFKQYERWNDYIMSKN | 0.116
18 | HMLDPYNVLGVPRDAGMDEIKKAYRKLSRTYHPDANIDNPNKAQAEEKFKQIQEAYQQIVKERTE | -0.0272
19 | HMLDQAVPVFETPKYAVSYIQNRLVEMKAASPEEAASRFYESISESERRGLFEALLIKEAEES | 0.0105
20 | HMLDQGTQSRYQIMDGVRALITGDWSSHGAGLVRELSQEVARTSGLTATSERTFFVPFSALS | 0.00593
21 | HMLDSDARRRGLIEYLSLNGYATMRQLAGEFDVSINTIQRDITYLARYYPLETAYGRYGGGVYFEQNWQ | -1.44
22 | HMLDSGNPILPYKLSLLANVDIRTVRNAISAGELVAFKSEFDGEVYVENGSARRWLHGRRGFKPTLK | -2.56
23 | HMLDSNILTLIKELKIRHHFTATQTHQLEKVIQQAHALGLDNSEIRSLANSSPSAKSLINDLNQKLEPLRL | -1.44
24 | HMLDTELEANLRSQRDQKLVEELDPIVTNPLRWAELTSDKQTEWTQYRTDLLNVPQQSGFPTNVTWPEKP | 0.216
25 | HMLDVFSAEQVADVLSVSKRNLETWANNGKLIPDFIHGEVALYSKKQLEQFEQFQRFFNSSWDAERLIQP | -1.54
26 | HMLDVGDQLVKKLKDNDSLDFHFVNSKEANKGLKDGDYYMVITIPSNFSKNATTLLDKNPKKMVLNYTTNP | -0.0273

Row | Sequence | soluble fraction (log2)
27 | HMLEAKQIQDNWESLIKLIEDNFTGERKENLLKMYTHFQDRMMFAPASSKEHFHNAFPGGYVEHVL | -0.369
28 | HMLEDIDNSIKKEIILEHYDKMLEFHGDYGAIIFRKLLHAYSKGYTGANEFRDLVNQISDKNIMRDLIESF | -0.947
29 | HMLEEIIDVKRFLVENVRGVSEKTALAILSEFGDKTMDVLRNSPNELYRIKGMSGKRIEVIKDAIANATAS | -0.568
30 | HMLEINTIIGNNLKKIRQEKKLTLDELAGITGVSKGMLSQIEKGTTNPTINTIWKISNGLNVPYTYLLEDD | -0.513
31 | HMLENIVFTNKFKNKRLDVLLVDMKLVSSRQKAVSLIMRGNVFVEEERADKPGKIIKLNQTISLKK | -2.78
32 | HMLERPLKLKSHYVSAINEKVAVQFQAGEERKSIMGTLTEVNQDTIVIDDRGSVTEIPFKSIIRAKTVF | -0.621
33 | HMLESPVEAIIRQIKQLITNGKLKPGDRLPAERLLAENFGVGRGYVREAIMKLEFFGLLKTSPQSGTYVAG | -1.39
34 | HMLETIDIFKVTGGEPFLSKDFLEILDLAIEKDLAKNITLMITTNASKFVKKILDKFIHFKRVEFTVS | 0.407
35 | HMLFGKKYLGKVPNDASGRISLWNDIVKHHQELQNIRAIENFTSDNVTVAQGDTKKAVVVTDYVT | -0.286
36 | HMLFQGDTPAENIILEILSKNGTTASDSIIKQSGLSVSDFNQAATMLEIKGLISNNGGNIWSL | -0.0591
37 | HMLFVKLSDAQRSMFGAKLARDARIQSEYAQKLPSENYEVFGKALADMLLDETHFKTFYPLLVEYGYTQPK | -1.32
38 | HMLGDIYISIPRAKLQAEEYGHSFKRELAFLAVHGFYHLLGYDHQTKEEEEVMFGKQEEVLAEFDIKR | -0.0616
39 | HMLGKNEAKEYKVAYGDIGKMPALIMGLVPLPKPPVVDERLRTLYVTATPEQHREIEAIMNRI | 0.236
40 | HMLGKSNAERQLDLILGAIERSITGVSRSKLMQAYHLDSRGATAAFETLEQRGLITRSKSGRTELLIPTRV | -1.78
41 | HMLGWEDVIQFEEVKGYGQHIWRDGNHLYYVTEEGGIAPQRVVYELPNELFALLESGERTQLEILSKLQ | -2.51
42 | HMLHNEFINDRIQSAINNLSEHFKIVIILRDIQELSYEEISNIVEVPLGTIKSRINRARIQLQAELLDL | 0.215
43 | HMLILDTDGRYVIKRGDSLSEILEKIANGSNINLNLLKRAFVTANPKAFKRANPNWMYANAR | -0.249
44 | HMLIPTISVTKEGQLRFENIPVSWEELGTRLRDVSDLDKIKIYADAESDALTISEIMKTAANVGIVQFVLV | -1.03
45 | HMLIRKGVVSFFNDAKGYGFIKDLVTQESAFVHVNSLSETIKEHDKVTFEVEMGHKGANAVNVKLVK | -1.09
46 | HMLIVLKPNVSQEEIDHIVDKIRSLSLEPHVSTGVQRTIITVIGDEDVIREQPLEALAGVESVKSILKP | -0.358
47 | HMLKGTVKWFNESKGFGFIEQEEGKDVFVHYSAITGSGFKTLNEGDKVQFEIVDGPKGPAAANVSK | 0.036
48 | HMLKKGDQVYIISGKDKGKLGVVSQIVSEERILVDGINLAKKHVKPNPNKNETGGVVEKEMPIHASNVMI | 0.243
49 | HMLKLTDRQKVILSILMSDGEKTASWIASQLGVGLRSVQLDLSYLRNNGFIKKASKSTHSAWIVLKK | -4.1
50 | HMLKPIHKDWSPNGDAKEILLKAGITEEFIQKELPEFIMYWSERNEESDIWNSKFIAHIRRRWGRFS | -1.64
51 | HMLKPVVLLGARGLTDAVEKEVERALDEHGLIKIHVPSDDREERDEIYTTLADKLNAARIQAIGKMLVLW | -0.0344
52 | HMLKSGSAVAQARDVILEKGVPVHINEILDALGKGDTREAKASLTSSLAAYVRRGEIFTRPAPNTFGLVEL | -0.592

Row | Sequence | soluble fraction (log2)
53 | HMLKTADAIASVLLTRIQAGEFSAGRLPAERALSEAFSTTRITLREALGKLEAQGMIYRELRRGWFIA | -1.85
54 | HMLLFNPGEVLKGFVLQSGTNNRVLLQIGDSRVIADTQTPLKAGEQLVLRVEETGPKTILQILG | 0.177
55 | HMLLGDYIQKLRNQRGLSQQEFADKLGIGRSTLANYEQNKRSPDYETLIEISKFFNVSIDELLGV | -1.05
56 | HMLLLASTPAEQTIIQLLAEGWRDGDQLQQRSHLSAADFSTALTMLEVNGSIKPLGANHWALTH | -1.26
57 | HMLLPANLTKSQRNIAERVARGQSNLEIAADLNITERTVKAHLTSIYEKTKTGNRLNLALLINLG | -0.289
58 | HMLLPGEELRVMIIQEGKEYGQGVGYLDDGTMVVVEDGQRALNRTENVVVTKVLQTTAGRMIFAK | -0.71
59 | HMLLQENRKLHSKLEELQLISRAKAVLIEYLKLTEPQAHRYIEKQAMDLGLTRPQVALNILKTYE | -1.38
60 | HMLLQTAVISTDIVNMRAEPTTNSSVIRKLTKGSDITINQEKDGWYKISDDQGNSGWIVTWAAKPT | -0.208
61 | HMLMDVRVPDIIGVEINQAKEILTASSLLIGKITYVSLPEIEKDLVIETSVLAGRRVSAGTVIDITVNKE | -2.09
62 | HMLMKPQKTRDVLRYLKSIGWVRLRGGQGSHEIWGLPDGSIRAVIPAGHREISAGVLMQLKRAGVDVPTQW | -1.25
63 | HMLMLTPGQIAQTLDVSTATVRRWSARYARHLSPNTPGKKRSYTVDDLAVLTRVRDLSATGTPLAQIDQAL | -2.11
64 | HMLMLTPGQVSNSLNVSTATVRRWSARFARHLSPQPPNRKRSYTPDDLATLARVRDLSASGTSLAQIDIAL | -2.59
65 | HMLMRSPDFLIGWFQNLVAKRETFNDQVQAKNLIEAGKQHIQGEDFDRLLEVNRRLFSLLPQREQE | 0.177
66 | HMLNAPFGFRIEDDTLIPIPEEAKVVRQIFRYYLQGMGFGKIAQELNGQDVPGKPWGKERIKYILSNEKYI | -2.47
67 | HMLNERQKKIIKILKDNKNWMTGKELSEFLNVSDRTIRSDIEYINRYNNALIESNVKNGYHLNFE | -0.233
68 | HMLNIVTIFEEQFGRPLSPIELNIIKDWKESDYSDEMIVKALKEAVKSQVLNFRYVEGILNNWAKNG | -0.783
69 | HMLNLNEAEKSIYVLIKKNESNNLNKVKEDSNLSNKAWDKGIKNLVKNNLVKVVKSNEGLFIQLV | -0.636
70 | HMLNLNILTDKEKFIAKLISRGLSDSLIAKELYISISTVRSHVNSIYGKTNIKNRSHLASSFLYFELGNLL | -0.204
71 | HMLNPMILLTKGGENIRLDKFLSSHLSDLSRTQIQKMVKEGLVLVNGEPSKVGLKLDGSETIQYTLPK | -0.18
72 | HMLNSISIKTNKKIDFLEKNEHLVNFVYEKETMEHIYNLSYENKKDLQELQNKLSDIEGIIKINTDL | 0.651
73 | HMLPDVSITGHIFIRSGSRLNRIFVGESTYHVGDMLDGKWLIESINSDSLELRSGTQTTELPL | -2.83
74 | HMLPDYLIELKKKADSGDAVSQNDIGNIYLYGLPRVNIYPDEKNIGIGIDYLYKAAWQDQVNAMTTI | -0.098
75 | HMLPELQPGQTFSARIQQALPDNTYRALVAGKQLTLQLPEGAKAGDELELVVLDRSARVIIARQVD | -0.691
76 | HMLPGERFKVKIAQAGKEKKQGIGYLNDGTMVVIENGIEKVGEEVEAVVIKVIQSSAGKIIFSEVAK | 0.0862
